Experimental data published in patent US20100298225A1, “PEPTIDE GAP JUNCTION MODULATORS” (published 2010).

molecular target: T1, Recombinant Cx43CT (carboxyl terminal domain of connexin43, sequence 255-382 of rCx43 preceded by GPLG) (rat, UniProt P08050); experiment: SPR, Cx43CT immobilised, peptide at 1 mM
Procedure: (§1) Recombinant Cx43CT was covalently bound to a carboxylmethyl dextran matrix (Salamon et al., “Surface Plasmon Resonance Spectroscopy as a Tool for Investigating the Biochemical and Biophysical Properties of Membrane Protein Systems. II: Applications to Biological Systems,” Biochim. Biophys. Acta 1331(2):131-152 (1997), which is hereby incorporated by reference in its entirety). Specific peptides were presented and, when feasible, dissociation constants (KD) were calculated from the time course of binding and unbinding of the ligand, using a 1:1 (Langmuir) association and dissociation kinetic model (Biacore software package). In both phases (association and dissociation), the first 5-8 seconds of recording were not included in the fit, to avoid artifacts resulting from peptide distribution within the flow cells (Lang et al., “Surface Plasmon Resonance as a Method to Study the Kinetics and Amplitude of Protein-protein Binding,” in PRACTICAL METHODS IN CARDIOVASCULAR […] 936-947 (Stefan Dhein, Friedrich Wilhelm Mohr & Mario Delmar eds., 2005), which is hereby incorporated by reference in its entirety).
(§2) The peptides shown in table 2 and 3 were tested for binding to the carboxyl terminal domain (CT) of Cx43 using Surface Plasmon Resonance (“SPR”). SPR is a method that was used to identify the original RXPE sequence (Shibayama et al., “Identification of a Novel Peptide that Interferes with the Chemical Regulation of Connexin-43,” Circ. Res. 98:1365-72 (2006)).

T1 sequence (P08050 other isoform, or with tags, fused parts or gaps limits assumed): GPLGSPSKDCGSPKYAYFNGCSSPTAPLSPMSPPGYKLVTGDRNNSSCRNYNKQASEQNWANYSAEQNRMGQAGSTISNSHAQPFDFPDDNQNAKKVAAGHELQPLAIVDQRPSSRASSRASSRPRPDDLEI

Binder	SPR respons at 1 mM
Ac-YNRR-NH2 [Compound 2499]	69.4 arbitrary units
Ac-RRNY-NH2 [Compound 2498]	91 arbitrary units
Ac-YNRRGGGSAVPFYSHSYNRR-NH2 [Compound 2496]	1400 arbitrary units
Ac-RRNYSAVPFYSHSRRNY-NH2 [Compound 2506]	1170 arbitrary units
Ac-RRNYSHSRRNY-NH2 [Compound 2507]	703 arbitrary units
Ac-RRNYRRNY-NH2 [Compound 2497]	565 arbitrary units

Results, then the binder that gave them:

SPR respons at 1 mM	Binder
692 arbitrary units	Ac-RRNYAVPFRRNY-NH2 [Compound 2511]
1020 arbitrary units	Ac-RRNYGGGSAVPFYRRNY-NH2 [Compound 2508]
1190 arbitrary units	Ac-RRNYGGSAVPFYSHRRNY-NH2 [Compound 2510]
395 arbitrary units	Ac-RRNYVPRRNY-NH2 [Compound 2512]
479 arbitrary units	Ac-RRNYGGGRRNY-NH2 [Compound 2509]

molecular target: T1, Recombinant Cx43CT (carboxyl terminal …); experiment: SPR, Cx43CT immobilised, peptide at 25 uM
Procedure: as §1, §2

Binder	SPR respons at 25 uM
Ac-YNRRGGGSAVPFYSHSYNRR-NH2 [Compound 2496]	67.7 arbitrary units
Ac-RRNYSAVPFYSHSRRNY-NH2 [Compound 2506]	51.7 arbitrary units
Ac-RRNYSHSRRNY-NH2 [Compound 2507]	42.3 arbitrary units
Ac-RRNYRRNY-NH2 [Compound 2497]	30.2 arbitrary units

The remaining lines, values ahead:

SPR respons at 25 uM	Binder
16.2 arbitrary units	Ac-RRNYAVPFRRNY-NH2 [Compound 2511]
31.1 arbitrary units	Ac-RRNYGGGSAVPFYRRNY-NH2 [Compound 2508]
40.3 arbitrary units	Ac-RRNYGGSAVPFYSHRRNY-NH2 [Compound 2510]
14.8 arbitrary units	Ac-RRNYVPRRNY-NH2 [Compound 2512]
21.5 arbitrary units	Ac-RRNYGGGRRNY-NH2 [Compound 2509]

molecular target: T1, Recombinant Cx43CT (carboxyl terminal …); experiment: SPR, Cx43CT immobilised, peptide at 100 uM
Procedure: as §1, §2

Binder	SPR respons at 100 uM
Ac-YNRRGGGSAVPFYSHSYNRR-NH2 [Compound 2496]	156 arbitrary units
Ac-RRNYSAVPFYSHSRRNY-NH2 [Compound 2506]	117 arbitrary units
Ac-RRNYSHSRRNY-NH2 [Compound 2507]	114 arbitrary units
Ac-RRNYRRNY-NH2 [Compound 2497]	84.2 arbitrary units

The next lines start with the values.

SPR respons at 100 uM	Binder
90.5 arbitrary units	Ac-RRNYAVPFRRNY-NH2 [Compound 2511]
122 arbitrary units	Ac-RRNYGGGSAVPFYRRNY-NH2 [Compound 2508]
176 arbitrary units	Ac-RRNYGGSAVPFYSHRRNY-NH2 [Compound 2510]
50.7 arbitrary units	Ac-RRNYVPRRNY-NH2 [Compound 2512]
62.5 arbitrary units	Ac-RRNYGGGRRNY-NH2 [Compound 2509]

molecular target: T1, Recombinant Cx43CT (carboxyl terminal …); experiment: SPR, Cx43CT immobilised, peptide at 250 uM
Procedure: as §1, §2

Binder	SPR respons at 250 uM
Ac-YNRRGGGSAVPFYSHSYNRR-NH2 [Compound 2496]	358 arbitrary units
Ac-RRNYSAVPFYSHSRRNY-NH2 [Compound 2506]	327 arbitrary units
Ac-RRNYSHSRRNY-NH2 [Compound 2507]	254 arbitrary units
Ac-RRNYRRNY-NH2 [Compound 2497]	202 arbitrary units

Continued, values first:

SPR respons at 250 uM	Binder
214 arbitrary units	Ac-RRNYAVPFRRNY-NH2 [Compound 2511]
285 arbitrary units	Ac-RRNYGGGSAVPFYRRNY-NH2 [Compound 2508]
332 arbitrary units	Ac-RRNYGGSAVPFYSHRRNY-NH2 [Compound 2510]
117 arbitrary units	Ac-RRNYVPRRNY-NH2 [Compound 2512]
148 arbitrary units	Ac-RRNYGGGRRNY-NH2 [Compound 2509]

molecular target: T1, Recombinant Cx43CT (carboxyl terminal …); experiment: SPR, Cx43CT immobilised, peptide at 500 uM
Procedure: as §1, §2

Binder	SPR respons at 500 uM
Ac-RRNY-NH2 [Compound 2498]	50.9 arbitrary units
Ac-YNRRGGGSAVPFYSHSYNRR-NH2 [Compound 2496]	739 arbitrary units
Ac-RRNYSAVPFYSHSRRNY-NH2 [Compound 2506]	562 arbitrary units
Ac-RRNYSHSRRNY-NH2 [Compound 2507]	438 arbitrary units
Ac-RRNYRRNY-NH2 [Compound 2497]	328 arbitrary units

Further lines, results first:

SPR respons at 500 uM	Binder
390 arbitrary units	Ac-RRNYAVPFRRNY-NH2 [Compound 2511]
547 arbitrary units	Ac-RRNYGGGSAVPFYRRNY-NH2 [Compound 2508]
643 arbitrary units	Ac-RRNYGGSAVPFYSHRRNY-NH2 [Compound 2510]
227 arbitrary units	Ac-RRNYVPRRNY-NH2 [Compound 2512]
281 arbitrary units	Ac-RRNYGGGRRNY-NH2 [Compound 2509]

molecular target: T1, Recombinant Cx43CT (carboxyl terminal …); experiment: SPR, Cx43CT immobilised, peptide at 1 mM, response normalised on Mw
Text: (§3) Biophys. […] Commun. 8(4-6):225-229 (2001); Lang et al., “Surface Plasmon Resonance as a Method to Study the Kinetics and Amplitude of Protein-protein Binding,” in PRACTICAL METHODS IN CARDIOVASCULAR […] 936-947 (Stefan Dhein, Friedrich Wilhelm Mohr & Mario Delmar eds., 2005), which are hereby incorporated by reference in their entirety). Recombinant Cx43CT was covalently bound to a carboxylmethyl dextran matrix (Salamon et al., “Surface Plasmon Resonance Spectroscopy as a Tool for Investigating the Biochemical and Biophysical Properties of Membrane Protein Systems. II: Applications to Biological Systems,” Biochim. Biophys. Acta 1331(2):131-152 (1997), which is hereby incorporated by reference in its entirety). Specific peptides were presented and, when feasible, dissociation constants (KD) were calculated from the time course of binding and unbinding of the ligand, using a 1:1 (Langmuir) association and dissociation kinetic model (Biacore software package). In both phases (association and dissociation), the first 5-8 seconds of recording were not included in the fit, to avoid artifacts resulting from peptide distribution within the flow cells (Lang et al., “Surface Plasmon Resonance as a Method to Study the Kinetics and Amplitude of Protein-protein Binding,” in PRACTICAL METHODS IN CARDIOVASCULAR […] 936-947 (Stefan Dhein, Friedrich Wilhelm Mohr & Mario Delmar eds., 2005), which is hereby incorporated by reference in its entirety).
(§4) The peptides shown in table 2 and 3 were tested for binding to the carboxyl terminal domain (CT) of Cx43 using Surface Plasmon Resonance (“SPR”). SPR is a method that was used to identify the original RXPE sequence (Shibayama et al., “Identification of a Novel Peptide that Interferes with the Chemical Regulation of Connexin-43,” Circ. Res. 98:1365-72 (2006)). The amplitude of the response is also a function of the mass of the ligate, and the normalized data according to the individual peptide Mw's are shown in table 3.

Binder	SPR normalised on Mw at 1 mM
Ac-YNRR-NH2 [Compound 2499]	10.7 (SPRrespons*100)/Mw
Ac-RRNY-NH2 [Compound 2498]	14 (SPRrespons*100)/Mw
Ac-YNRRGGGSAVPFYSHSYNRR-NH2 [Compound 2496]	58.8 (SPRrespons*100)/Mw
Ac-RRNYSAVPFYSHSRRNY-NH2 [Compound 2506]	53 (SPRrespons*100)/Mw
Ac-RRNYSHSRRNY-NH2 [Compound 2507]	45.4 (SPRrespons*100)/Mw
Ac-RRNYRRNY-NH2 [Compound 2497]	45.7 (SPRrespons*100)/Mw

Further lines, results first:

SPR normalised on Mw at 1 mM	Binder
41.9 (SPRrespons*100)/Mw	Ac-RRNYAVPFRRNY-NH2 [Compound 2511]
49.4 (SPRrespons*100)/Mw	Ac-RRNYGGGSAVPFYRRNY-NH2 [Compound 2508]
53 (SPRrespons*100)/Mw	Ac-RRNYGGSAVPFYSHRRNY-NH2 [Compound 2510]
27.5 (SPRrespons*100)/Mw	Ac-RRNYVPRRNY-NH2 [Compound 2512]
34 (SPRrespons*100)/Mw	Ac-RRNYGGGRRNY-NH2 [Compound 2509]

molecular target: T1, Recombinant Cx43CT (carboxyl terminal …); experiment: SPR, Cx43CT immobilised, peptide at 25 uM, response normalised on Mw
Text: as §3, §4

Binder	SPR normalised on Mw at 25 uM
Ac-YNRRGGGSAVPFYSHSYNRR-NH2 [Compound 2496]	2.8 (SPRrespons*100)/Mw
Ac-RRNYSAVPFYSHSRRNY-NH2 [Compound 2506]	2.3 (SPRrespons*100)/Mw
Ac-RRNYSHSRRNY-NH2 [Compound 2507]	2.7 (SPRrespons*100)/Mw
Ac-RRNYRRNY-NH2 [Compound 2497]	2.4 (SPRrespons*100)/Mw

The next lines start with the values.

SPR normalised on Mw at 25 uM	Binder
1 (SPRrespons*100)/Mw	Ac-RRNYAVPFRRNY-NH2 [Compound 2511]
1.5 (SPRrespons*100)/Mw	Ac-RRNYGGGSAVPFYRRNY-NH2 [Compound 2508]
1.8 (SPRrespons*100)/Mw	Ac-RRNYGGSAVPFYSHRRNY-NH2 [Compound 2510]
1 (SPRrespons*100)/Mw	Ac-RRNYVPRRNY-NH2 [Compound 2512]
1.5 (SPRrespons*100)/Mw	Ac-RRNYGGGRRNY-NH2 [Compound 2509]

molecular target: T1, Recombinant Cx43CT (carboxyl terminal …); experiment: SPR, Cx43CT immobilised, peptide at 100 uM, response normalised on Mw
Text: as §3, §4

Binder	SPR normalised on Mw at 100 uM
Ac-YNRRGGGSAVPFYSHSYNRR-NH2 [Compound 2496]	6.5 (SPRrespons*100)/Mw
Ac-RRNYSAVPFYSHSRRNY-NH2 [Compound 2506]	5.3 (SPRrespons*100)/Mw
Ac-RRNYSHSRRNY-NH2 [Compound 2507]	7.3 (SPRrespons*100)/Mw
Ac-RRNYRRNY-NH2 [Compound 2497]	6.8 (SPRrespons*100)/Mw

Continued, values first:

SPR normalised on Mw at 100 uM	Binder
5.5 (SPRrespons*100)/Mw	Ac-RRNYAVPFRRNY-NH2 [Compound 2511]
5.9 (SPRrespons*100)/Mw	Ac-RRNYGGGSAVPFYRRNY-NH2 [Compound 2508]
7.9 (SPRrespons*100)/Mw	Ac-RRNYGGSAVPFYSHRRNY-NH2 [Compound 2510]
3.5 (SPRrespons*100)/Mw	Ac-RRNYVPRRNY-NH2 [Compound 2512]
4.4 (SPRrespons*100)/Mw	Ac-RRNYGGGRRNY-NH2 [Compound 2509]

molecular target: T1, Recombinant Cx43CT (carboxyl terminal …); experiment: SPR, Cx43CT immobilised, peptide at 250 uM, response normalised on Mw
Text: as §3, §4

Binder	SPR normalised on Mw at 250 uM
Ac-YNRRGGGSAVPFYSHSYNRR-NH2 [Compound 2496]	15 (SPRrespons*100)/Mw
Ac-RRNYSAVPFYSHSRRNY-NH2 [Compound 2506]	14.8 (SPRrespons*100)/Mw
Ac-RRNYSHSRRNY-NH2 [Compound 2507]	16.4 (SPRrespons*100)/Mw
Ac-RRNYRRNY-NH2 [Compound 2497]	16.3 (SPRrespons*100)/Mw

More lines, now with the values ahead:

SPR normalised on Mw at 250 uM	Binder
13 (SPRrespons*100)/Mw	Ac-RRNYAVPFRRNY-NH2 [Compound 2511]
13.7 (SPRrespons*100)/Mw	Ac-RRNYGGGSAVPFYRRNY-NH2 [Compound 2508]
14.8 (SPRrespons*100)/Mw	Ac-RRNYGGSAVPFYSHRRNY-NH2 [Compound 2510]
8.2 (SPRrespons*100)/Mw	Ac-RRNYVPRRNY-NH2 [Compound 2512]
10.5 (SPRrespons*100)/Mw	Ac-RRNYGGGRRNY-NH2 [Compound 2509]

molecular target: T1, Recombinant Cx43CT (carboxyl terminal …); experiment: SPR, Cx43CT immobilised, peptide at 500 uM, response normalised on Mw
Text: as §3, §4

Binder	SPR normalised on Mw at 500 uM
Ac-RRNY-NH2 [Compound 2498]	7.9 (SPRrespons*100)/Mw
Ac-YNRRGGGSAVPFYSHSYNRR-NH2 [Compound 2496]	31 (SPRrespons*100)/Mw
Ac-RRNYSAVPFYSHSRRNY-NH2 [Compound 2506]	25.4 (SPRrespons*100)/Mw
Ac-RRNYSHSRRNY-NH2 [Compound 2507]	28.3 (SPRrespons*100)/Mw
Ac-RRNYRRNY-NH2 [Compound 2497]	26.5 (SPRrespons*100)/Mw

Now from value to binder:

SPR normalised on Mw at 500 uM	Binder
23.6 (SPRrespons*100)/Mw	Ac-RRNYAVPFRRNY-NH2 [Compound 2511]
26.4 (SPRrespons*100)/Mw	Ac-RRNYGGGSAVPFYRRNY-NH2 [Compound 2508]
28.7 (SPRrespons*100)/Mw	Ac-RRNYGGSAVPFYSHRRNY-NH2 [Compound 2510]
15.9 (SPRrespons*100)/Mw	Ac-RRNYVPRRNY-NH2 [Compound 2512]
19.9 (SPRrespons*100)/Mw	Ac-RRNYGGGRRNY-NH2 [Compound 2509]
